# Data taken from patent US20230220057A1 (STAIDSON BEIJING BIOPHARMACEUTICALS, published 2023).
# Target: recombinantly produced human-NGF (human, UniProt P01138 122-241, limits assumed)
# Assay: ELISA, human NGF coated, IgG titrated
# Protocol: NGF binding ELISA assay: In human NGF binding ELISA, Corning 3366 high binding 96 well plates were coated with recombinantly produced human-NGF at 1 μg per ml, 50 μl/well in 1×PBS, and incubated overnight at 4° C. The plates were washed and blocked with 250 μl of 1×PBS/1% BSA at least 30 minutes at room temperature. 50 μl of culture supernatants, after 1:1 diluted by the PBS/BSA diluent, or the purified antibodies diluted serially from a certain concentration with the diluent, were added per well, and incubated at 37° C. for 2 hours. After washing, a secondary antibody, goat anti-human IgG Fc AP (Southern biotech) was applied at a dilution of 1:3000 in PBS/BSA. The plates were incubated for 1 hour at RT and washed. After adding the PNPP substrate, the ODs at 405 nm were read.
# NGF binding ELISA assay: NGF binding ELISA assay was performed as described in Example 1.
# Sequence of recombinantly produced human-NGF (P01138 122-241 limits assumed): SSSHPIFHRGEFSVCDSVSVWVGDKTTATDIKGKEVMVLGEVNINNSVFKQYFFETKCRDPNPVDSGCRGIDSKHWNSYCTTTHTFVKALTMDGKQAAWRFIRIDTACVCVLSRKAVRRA
row,Binder,EC50 [ng/mL]
1,"Ab1 (antibody, human IgG1, V domains shown, Lead antibody; also called Abl) VH: EVQLVQSGAEVKKPGATVKISCKVSGYTFITYWISWVQQAPGKGLEWMGAIDPSDSDARYSPSFQGRVTITADTSTDTAYMELSSLRSEDTAVYYCAKSDPGYSGYSLLYGFDSWGQGTLVTVSS VL: DIVMTQTPLSSPVTLGQPASISCRSSQSLVQRNGNTYLSWLQQRPGQPPRLLIYQVSNRYSGVPDRFSGSGAGTDFTLKISRVEAEDVGVYYCGQGAHLPLTFGQGTKVEIK",0.0185
2,"Ab13 (antibody, human IgG1, V domains shown) VH: EVQLVQSGAEVKKPGATVKISCKVSGYSFITYWISWVQQAPGKGLEWMGAIDPSDSDARYSPSFQGRVTITADTSTDTAYMELSSLRSEDTAVYYCAKSDPGYSGYSLLYGFDSWGQGTLVTVSS VL: DVVMTQSPLSLPVTLGQPASISCRSSQSLVQRNGNTYLSWFQQRPGQSPRLLIYQVSNRYSGVPDRFSGSGSGTDFTLKISRVEAEDVGVYYCGQGAHLPLTFGQGTKVEIK",0.043
3,"Ab11 (antibody, human IgG1, V domains shown) VH: EVQLVQSGAEVKKPGATVKISCKVSGYSFITYWISWVQQAPGKGLEWMGAIDPSDSDARYSPSFQGRVTITADTSTDTAYMELSSLRSEDTAVYYCAKSDPGYSGYSLLYGFDSWGQGTLVTVSS VL: DIVMTQTPLSSPVTLGQPASISCRSSQSLVQRNGNTYLSWLQQRPGQPPRLLIYQVSNRYSGVPDRFSGSGAGTDFTLKISRVEAEDVGVYYCGQGAHLPLTFGQGTKVEIK",0.032
4,"Ab5 (antibody, human IgG1, V domains shown) VH: EVQLVQSGAEVKKPGATVKISCKVSGYTFITYWISWVQQAPGKGLEWMGAIDPSDSDARYSPSFQGRVTITADTSTDTAYMELSSLRSEDTAVYYCAKSDPGYSGYSLLYGFDSWGQGTLVTVSS VL: DVVMTQSPLSLPVTLGQPASISCRSSQSLVQRNGNTYLSWYQQRPGQPPRLLIYQVSNRYSGVPDRFSGSGSGTDFTLKISRVEAEDVGVYYCGQGAHLPLTFGQGTKVEIK",0.0139
5,"Ab2 (antibody, human IgG1, V domains shown) VH: EVQLVQSGAEVKKPGATVKISCKVSGYTFITYWISWVQQAPGKGLEWMGAIDPSDSDARYSPSFQGRVTITADTSTDTAYMELSSLRSEDTAVYYCAKSDPGYSGYSLLYGFDSWGQGTLVTVSS VL: DIVMTQTPLSSPVTLGQPASISCRSSQSLVQRNGNTYLSWYQQRPGQPPRLLIYQVSNRYSGVPDRFSGSGAGTDFTLKISRVEAEDVGVYYCGQGAHLPLTFGQGTKVEIK",0.0197
6,"Ab9 (antibody, human IgG1, V domains shown) VH: EVQLVQSGAEVKKPGATVKISCKVSGYTFITYWISWVQQAPGKGLEWMGAIDPSDSDARYSPSFQGRVTITADTSTDTAYMELSSLRSEDTAVYYCAKSDPGYSGYSLLYGFDSWGQGTLVTVSS VL: DIVMTQSPLSLPVTLGQPASISCRSSQSLVQRNGNTYLSWYQQRPGQPPRLLIYQVSNRYSGVPDRFSGSGSGTDFTLKISRVEAEDVGVYYCGQGAHLPLTFGQGTKVEIK",0.0876
7,"Ab8 (antibody, human IgG1, V domains shown) VH: EVQLVQSGAEVKKPGATVKISCKVSGYTFITYWISWVQQAPGKGLEWMGAIDPSDSDARYSPSFQGRVTITADTSTDTAYMELSSLRSEDTAVYYCAKSDPGYSGYSLLYGFDSWGQGTLVTVSS VL: DIVMTQSPLSLPVTLGQPASISCRSSQSLVQRNGNTYLSWYQQRPGQSPRLLIYQVSNRYSGVPDRFSGSGSGTDFTLKISRVEAEDVGVYYCGQGAHLPLTFGQGTKVEIK",0.0205
8,"Ab7 (antibody, human IgG1, V domains shown) VH: EVQLVQSGAEVKKPGATVKISCKVSGYTFITYWISWVQQAPGKGLEWMGAIDPSDSDARYSPSFQGRVTITADTSTDTAYMELSSLRSEDTAVYYCAKSDPGYSGYSLLYGFDSWGQGTLVTVSS VL: DIVMTQSPLSLPVTLGQPASISCRSSQSLVQRNGNTYLSWFQQRPGQSPRLLIYQVSNRYSGVPDRFSGSGSGTDFTLKISRVEAEDVGVYYCGQGAHLPLTFGQGTKVEIK",0.00988
9,"Ab3 (antibody, human IgG1, V domains shown) VH: EVQLVQSGAEVKKPGATVKISCKVSGYTFITYWISWVQQAPGKGLEWMGAIDPSDSDARYSPSFQGRVTITADTSTDTAYMELSSLRSEDTAVYYCAKSDPGYSGYSLLYGFDSWGQGTLVTVSS VL: DVVMTQSPLSLPVTLGQPASISCRSSQSLVQRNGNTYLSWFQQRPGQSPRLLIYQVSNRYSGVPDRFSGSGSGTDFTLKISRVEAEDVGVYYCGQGAHLPLTFGQGTKVEIK",0.017
10,"Ab12 (antibody, human IgG1, V domains shown) VH: EVQLVQSGAEVKKPGATVKISCKVSGYSFITYWISWVQQAPGKGLEWMGAIDPSDSDARYSPSFQGRVTITADTSTDTAYMELSSLRSEDTAVYYCAKSDPGYSGYSLLYGFDSWGQGTLVTVSS VL: DIVMTQTPLSSPVTLGQPASISCRSSQSLVQRNGNTYLSWYQQRPGQPPRLLIYQVSNRYSGVPDRFSGSGAGTDFTLKISRVEAEDVGVYYCGQGAHLPLTFGQGTKVEIK",0.0365
11,"Ab14 (antibody, human IgG1, V domains shown) VH: EVQLVQSGAEVKKPGATVKISCKVSGYSFITYWISWVQQAPGKGLEWMGAIDPSDSDARYSPSFQGRVTITADTSTDTAYMELSSLRSEDTAVYYCAKSDPGYSGYSLLYGFDSWGQGTLVTVSS VL: DVVMTQSPLSLPVTLGQPASISCRSSQSLVQRNGNTYLSWYQQRPGQSPRLLIYQVSNRYSGVPDRFSGSGSGTDFTLKISRVEAEDVGVYYCGQGAHLPLTFGQGTKVEIK",0.0351

# Results, then the binder that gave them:
row,EC50 [ng/mL],Binder
1,0.0215,"Ab20 (antibody, human IgG1, V domains shown) VH: EVQLVQSGAEVKKPGATVKISCKVSGYSFITYWISWVQQAPGKGLEWMGAIDPSDSDARYSPSFQGRVTITADTSTDTAYMELSSLRSEDTAVYYCAKSDPGYSGYSLLYGFDSWGQGTLVTVSS VL: DIVMTQSPLSLPVTLGQPASISCRSSQSLVQRNGNTYLSWFQQRPGQPPRLLIYQVSNRYSGVPDRFSGSGSGTDFTLKISRVEAEDVGVYYCGQGAHLPLTFGQGTKVEIK"
2,0.0382,"Ab22 (antibody, human IgG1, V domains shown) VH: EVQLVQSGAEVKKPGATVKISCKVSGYSFITYWISWVQQAPGKGLEWMGAIDPSDSDARYSPSFQGRVTITADKSTDTAYMELSSLRSEDTAVYYCAKSDPGYSGYSLLYGFDSWGQGTLVTVSS VL: DIVMTQTPLSSPVTLGQPASISCRSSQSLVQRNGNTYLSWYQQRPGQPPRLLIYQVSNRYSGVPDRFSGSGAGTDFTLKISRVEAEDVGVYYCGQGAHLPLTFGQGTKVEIK"
3,0.0403,"Ab21 (antibody, human IgG1, V domains shown) VH: EVQLVQSGAEVKKPGATVKISCKVSGYSFITYWISWVQQAPGKGLEWMGAIDPSDSDARYSPSFQGRVTITADKSTDTAYMELSSLRSEDTAVYYCAKSDPGYSGYSLLYGFDSWGQGTLVTVSS VL: DIVMTQTPLSSPVTLGQPASISCRSSQSLVQRNGNTYLSWLQQRPGQPPRLLIYQVSNRYSGVPDRFSGSGAGTDFTLKISRVEAEDVGVYYCGQGAHLPLTFGQGTKVEIK"
4,0.0324,"Ab19 (antibody, human IgG1, V domains shown) VH: EVQLVQSGAEVKKPGATVKISCKVSGYSFITYWISWVQQAPGKGLEWMGAIDPSDSDARYSPSFQGRVTITADTSTDTAYMELSSLRSEDTAVYYCAKSDPGYSGYSLLYGFDSWGQGTLVTVSS VL: DIVMTQSPLSLPVTLGQPASISCRSSQSLVQRNGNTYLSWYQQRPGQPPRLLIYQVSNRYSGVPDRFSGSGSGTDFTLKISRVEAEDVGVYYCGQGAHLPLTFGQGTKVEIK"
5,0.046,"Ab15 (antibody, human IgG1, V domains shown) VH: EVQLVQSGAEVKKPGATVKISCKVSGYSFITYWISWVQQAPGKGLEWMGAIDPSDSDARYSPSFQGRVTITADTSTDTAYMELSSLRSEDTAVYYCAKSDPGYSGYSLLYGFDSWGQGTLVTVSS VL: DVVMTQSPLSLPVTLGQPASISCRSSQSLVQRNGNTYLSWYQQRPGQPPRLLIYQVSNRYSGVPDRFSGSGSGTDFTLKISRVEAEDVGVYYCGQGAHLPLTFGQGTKVEIK"
6,0.0399,"Ab24 (antibody, human IgG1, V domains shown) VH: EVQLVQSGAEVKKPGATVKISCKVSGYSFITYWISWVQQAPGKGLEWMGAIDPSDSDARYSPSFQGRVTITADKSTDTAYMELSSLRSEDTAVYYCAKSDPGYSGYSLLYGFDSWGQGTLVTVSS VL: DVVMTQSPLSLPVTLGQPASISCRSSQSLVQRNGNTYLSWYQQRPGQSPRLLIYQVSNRYSGVPDRFSGSGSGTDFTLKISRVEAEDVGVYYCGQGAHLPLTFGQGTKVEIK"
7,0.0405,"Ab23 (antibody, human IgG1, V domains shown) VH: EVQLVQSGAEVKKPGATVKISCKVSGYSFITYWISWVQQAPGKGLEWMGAIDPSDSDARYSPSFQGRVTITADKSTDTAYMELSSLRSEDTAVYYCAKSDPGYSGYSLLYGFDSWGQGTLVTVSS VL: DVVMTQSPLSLPVTLGQPASISCRSSQSLVQRNGNTYLSWFQQRPGQSPRLLIYQVSNRYSGVPDRFSGSGSGTDFTLKISRVEAEDVGVYYCGQGAHLPLTFGQGTKVEIK"
8,0.016,"Ab17 (antibody, human IgG1, V domains shown) VH: EVQLVQSGAEVKKPGATVKISCKVSGYSFITYWISWVQQAPGKGLEWMGAIDPSDSDARYSPSFQGRVTITADTSTDTAYMELSSLRSEDTAVYYCAKSDPGYSGYSLLYGFDSWGQGTLVTVSS VL: DIVMTQSPLSLPVTLGQPASISCRSSQSLVQRNGNTYLSWFQQRPGQSPRLLIYQVSNRYSGVPDRFSGSGSGTDFTLKISRVEAEDVGVYYCGQGAHLPLTFGQGTKVEIK"
9,0.0271,"Ab18 (antibody, human IgG1, V domains shown) VH: EVQLVQSGAEVKKPGATVKISCKVSGYSFITYWISWVQQAPGKGLEWMGAIDPSDSDARYSPSFQGRVTITADTSTDTAYMELSSLRSEDTAVYYCAKSDPGYSGYSLLYGFDSWGQGTLVTVSS VL: DIVMTQSPLSLPVTLGQPASISCRSSQSLVQRNGNTYLSWYQQRPGQSPRLLIYQVSNRYSGVPDRFSGSGSGTDFTLKISRVEAEDVGVYYCGQGAHLPLTFGQGTKVEIK"
